# Results as given in publication doi:10.1101/2022.02.05.479199.
# What was measured:
# hRPA;RPAIN = hRPA;RPAIN (human;human, UniProt P27694;P15927;P35244;Q86UA6 1-616;1-270;1-121;1-219, |); test: EMSA
# hRPA = hRPA (human, UniProt P27694;P15927;P35244 1-616;1-270;1-121); test: EMSA
# Chain of hRPA (P27694 whole entry, chain 1 of 3): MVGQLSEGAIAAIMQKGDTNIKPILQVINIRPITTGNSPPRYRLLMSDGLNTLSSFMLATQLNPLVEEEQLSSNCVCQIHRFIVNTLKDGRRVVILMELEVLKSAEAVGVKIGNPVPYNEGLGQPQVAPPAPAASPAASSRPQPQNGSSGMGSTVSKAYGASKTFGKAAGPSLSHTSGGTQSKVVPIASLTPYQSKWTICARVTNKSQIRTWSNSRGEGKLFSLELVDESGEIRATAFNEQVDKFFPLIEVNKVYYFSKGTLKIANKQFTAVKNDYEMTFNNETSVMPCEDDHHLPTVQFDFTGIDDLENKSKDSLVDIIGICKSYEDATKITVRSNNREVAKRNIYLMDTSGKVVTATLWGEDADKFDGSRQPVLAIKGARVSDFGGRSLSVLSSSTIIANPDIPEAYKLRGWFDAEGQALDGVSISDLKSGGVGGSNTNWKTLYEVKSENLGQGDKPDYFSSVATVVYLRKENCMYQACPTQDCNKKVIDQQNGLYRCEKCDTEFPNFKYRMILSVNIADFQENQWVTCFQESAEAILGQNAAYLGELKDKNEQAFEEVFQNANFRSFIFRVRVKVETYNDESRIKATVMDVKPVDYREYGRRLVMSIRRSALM
# Chain of hRPA (P15927 whole entry, chain 2 of 3): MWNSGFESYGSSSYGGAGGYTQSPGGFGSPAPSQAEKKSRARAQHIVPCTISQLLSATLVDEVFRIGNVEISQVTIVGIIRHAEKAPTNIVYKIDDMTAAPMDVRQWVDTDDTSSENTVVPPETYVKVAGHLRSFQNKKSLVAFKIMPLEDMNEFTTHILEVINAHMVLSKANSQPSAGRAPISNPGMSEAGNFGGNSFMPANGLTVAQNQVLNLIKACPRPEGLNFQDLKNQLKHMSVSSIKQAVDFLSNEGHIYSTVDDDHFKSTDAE
# Chain of hRPA (P35244 whole entry, chain 3 of 3): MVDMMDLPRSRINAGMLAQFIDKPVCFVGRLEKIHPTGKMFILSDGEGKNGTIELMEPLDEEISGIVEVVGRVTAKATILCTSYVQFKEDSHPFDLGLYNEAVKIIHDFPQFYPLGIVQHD
# Chain of hRPA;RPAIN (P27694 whole entry, chain 1 of 4): as the sequence (P27694 whole entry, chain 1 of 3) above
# Chain of hRPA;RPAIN (P15927 whole entry, chain 2 of 4): as the sequence (P15927 whole entry, chain 2 of 3) above
# Chain of hRPA;RPAIN (P35244 whole entry, chain 3 of 4): as the sequence (P35244 whole entry, chain 3 of 3) above
# Chain of hRPA;RPAIN (Q86UA6 whole entry, chain 4 of 4): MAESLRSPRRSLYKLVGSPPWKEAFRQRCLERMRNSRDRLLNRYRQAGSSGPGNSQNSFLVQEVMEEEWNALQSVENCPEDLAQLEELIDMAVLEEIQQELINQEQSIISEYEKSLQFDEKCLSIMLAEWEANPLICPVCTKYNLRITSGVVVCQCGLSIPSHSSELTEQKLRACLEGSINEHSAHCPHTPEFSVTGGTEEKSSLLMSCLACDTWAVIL
binder,measurement,setting,value
TTTTTTTTTTTTTTTTTTTTTTTTTTTTTT (ssDNA) [5'-Cy5-(dT)30],Kd,hRPA;RPAIN,11.8 nM
same,Kd,hRPA,10.5 nM
